Paper PMC13254535, “The RecBCD complex interacts directly with the DNA sliding clamp in Escherichia coli” (Nucleic Acids Research, 2026)

Experiments:
β-clamp = β-clamp (Escherichia coli, UniProt P0A988); test: Saturation transfer difference (STD)-NMR of peptides with β-clamp; type: binding; parameters: made in house; details: 150 µM peptide, 1.5 µM β-clamp; 25°C; 20 mM sodium phosphate, 100 mM NaCl, 5 mM DTT, 0.3% DMSO, 5% D2O, pH 7.4; 600 MHz
Description: All peptides, except Pol III C-terminal ([sequence]), were N-terminally acetylated and C-terminally amidated to remove charges in the N-and C-termini, not present in the context of the full-length proteins.
Unlabeled and ^2H, ^13C, ^15N-labeled E. coli β-clamp was expressed and purified as previously described [54]. The β-clamp concentration was determined by absorbance at 280 nm measured on a NanoDrop ND-1000 spectrophotometer (Thermo Fisher Scientific Inc.) and using an extinction coefficient calculated by the Expasy ProtParam web tool (https://web.expasy.org/protparam/) [55]. All β-clamp concentrations are listed as the protomer concentration. The peptides were readily soluble at micromolar concentration, although at high micromolar concentrations, we cannot rule out the presence of aggregates.
Saturation transfer difference (STD)-nuclear magnetic resonance (NMR) experiments were performed at 25°C on a Bruker Avance III HD 600 MHz NMR spectrometer equipped with a 5-mm QCI Cryoprobe. […] Samples were transferred to 5-mm NMR tubes.

[1] = target: T1, Escherichia coli β-clamp (DnaN), recombinantly expressed and purified (Escherichia coli, UniProt P0A988 1-366); test: STD-NMR; 150 µM peptide with 1.5 µM unlabeled β-clamp, 20 mM sodium phosphate, 100 mM NaCl, 5 mM DTT, 0.3% DMSO, pH 7.4, 25°C; details: both partners purified
T1 construct: β-clamp (dnaN), E. coli; homodimer; Unlabeled in STD-NMR and ITC; 2H,13C,15N-labeled in the TROSY-HSQC experiments; also called DNA sliding clamp; source: recombinantly expressed and purified as previously described [54]

ΔrecA ΔrecB cells [2] = test: DNA degradation assay after UV ("reckless" DNA degradation); type: cell-based, Escherichia coli; details: expressed from pUT18C in ΔrecA ΔrecB; UV 50 J/m^2, 3 h; Hoechst 33258 microscopy
Description: (§1) IMR13 (ΔrecA) served as a positive control for RecB-mediated DNA degradation, while IMR19 (ΔrecA ΔrecB) was used as a negative control.
(§2) Overnight cultures were diluted to an OD600 of 0.01 into LB medium supplemented with appropriate antibiotics and incubated with shaking at 37°C until they reached an OD600 of 0.2. Each culture was split into two 1 ml aliquots. One aliquot was fixed immediately in ethanol (50% final concentration) to assess DNA content prior to UV exposure. The second aliquot was pelleted, resuspended in 1× PBS, and exposed to UV light at a dose of 50 J/m^2 (CL-1000 Ultraviolet crosslinker, UVP). […]
(§3) Imaging was performed on a Leica DM6000 B fluorescence microscope equipped with a 100× oil immersion objective (Leica HCX Plan Apochromat 100×, 1.40 NA, PH3 CS), a Leica EL6000 metal-halide illumination system, and a Hamamatsu C9100-14 EM-CCD camera. For each sample, six fields of view were acquired, each including both phase-contrast and fluorescence channels. Fluorescence imaging was conducted using a narrow band-pass filter set optimized for CFP (Excitation: 426–446 nm; Emission: 460–500 nm; exposure time: 30 ms). All imaging parameters—including exposure time, illumination intensity, and gain—were kept constant across all strains, treatments, and replicates to ensure quantitative comparability and minimize experimental bias. […]

ΔrecA ΔrecB cells [3] = test: Basal DNA content without UV; type: cell-based, Escherichia coli; details: expressed from pUT18C in ΔrecA ΔrecB; no UV; compared to wild-type RecB
Description: as §1, §2, §3

BTH101 ΔrecB cells = test: Western blot of RecB expression level; parameters: species or system Escherichia coli; details: pUT18C constructs in BTH101 ΔrecB; Ponceau S normalized; relative to BTH101 wild type
Description: Samples, including purified RecB, β-clamp (purified as previously explained for co-immunoprecipitation), input (10 µg; 0.5%), and pull-down eluates, and samples from BTH101 cultures used in survival assays, were mixed with 1 mM dithiothreitol (DTT) and 1× NuPAGE LDS sample buffer, then heated to 75°C for 10 min. […] SeeBlue Plus2 Pre-stained Protein Standard (Invitrogen) was used as a molecular weight marker.
Proteins were transferred onto 0.2-µm nitrocellulose membranes using the Trans-Blot Turbo Transfer System (Bio-Rad), and membranes were blocked in 5% (w/v) skim milk (Merck) in PBS-T (PBS with 0.1% Tween-20) for 45–60 min at room temperature. […] Following protein transfer, these membranes were also incubated in 0.1% (w/v) Ponceau S solution for 5 min to verify transfer efficiency and account for total protein loading. The stain was visualized, imaged for densitometric normalization, and subsequently removed by washing with deionized water prior to blocking. […]
Relative RecB levels were quantified from the western blot images using Fiji (ImageJ) [58]. […] The lane profiles were plotted, and the measured signal from each lane was first normalized to the relevant Ponceau stain signal from the same lane and then to the wild-type strain.

recB strains = details: RecB mutation D1080A; ref [82]; cited from earlier work
RecA = details: RecB mutation D1080A; ref [82]; cited from earlier work
[4] = target: T1, Escherichia coli β-clamp (DnaN), …; test: ITC; 278-294 µM β-clamp in the syringe titrated into 70.6 µM peptide in the cell; 20 mM sodium phosphate, 100 mM NaCl, 1 mM TCEP, 0.02% DMSO, pH 7.4, 25°C; one-site model; three replicates; details: both partners purified

β-clamp, sequence (P0A988 whole entry): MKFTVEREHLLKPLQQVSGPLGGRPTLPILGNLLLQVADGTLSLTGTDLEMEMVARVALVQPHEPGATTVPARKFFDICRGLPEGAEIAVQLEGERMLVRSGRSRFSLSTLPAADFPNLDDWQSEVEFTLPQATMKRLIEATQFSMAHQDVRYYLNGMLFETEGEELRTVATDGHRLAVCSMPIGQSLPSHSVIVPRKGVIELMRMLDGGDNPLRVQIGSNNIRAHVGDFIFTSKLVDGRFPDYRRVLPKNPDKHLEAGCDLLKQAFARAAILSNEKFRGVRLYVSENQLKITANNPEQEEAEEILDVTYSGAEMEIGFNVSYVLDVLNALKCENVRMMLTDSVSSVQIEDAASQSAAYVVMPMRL
T1 sequence (P0A988 whole entry): as above

For “KQVEMEAY [QVEMEF variant in which the terminal phenylalanine was replaced with alanine]”, the STD-NMR binding (β-clamp) was “no detectable binding”.

With “EQVELEFD [DNA polymerase III C-terminal CBM peptide, positive control, reference compound]” the STD-NMR binding (β-clamp) was “clear binding”.

For “GQADMFG [DNA polymerase III internal CBM peptide, positive control, reference compound]”, the STD-NMR binding (β-clamp) was “clear binding”.

For “GKNQALRAV [phenylalanine-to-alanine variant of the RecB helicase motif peptide]”, the STD-NMR binding (β-clamp) was “did not exhibit detectable STD signals under the conditions tested”.

For “GKNQALRFV [RecB helicase motif peptide (residues 485–489) with one C-terminal and three N-terminal flanking residues]”, the STD-NMR binding (β-clamp) was “did not exhibit detectable STD signals under the conditions tested”.

B1: Pol III C-terminal peptide (EQVELEFD) (peptide)
peptide: EQVELEFD
notes: free termini; also called QVELEF peptide; source: synthetic peptide; bought: TAG Copenhagen
B1: binds [1].

B2: RecBF489A: RecB with an F489A substitution in the QALRF motif (protein, UniProt P08394 2-1180, looked up, variant F489A)
RecBCD enzyme subunit RecB: SDVAETLDPLRLPLQGERLIEASAGTGKTFTIAALYLRLLLGLGGSAAFPRPLTVEELLVVTFTEAATAELRGRIRSNIHELRIACLRETTDNPLYERLLEEIDDKAQAAQWLLLAERQMDEAAVFTIHGFCQRMLNLNAFESGMLFEQQLIEDESLLRYQACADFWRRHCYPLPREIAQVVFETWKGPQALLRDINRYLQGEAPVIKAPPPDDETLASRHAQIVARIDTVKQQWRDAVGELDALIESSGIDRRKFNRSNQAKWIDKISAWAEEETNSYQLPESLEKFSQRFLEDRTKAGGETPRHPLFEAIDQLLAEPLSIRDLVITRALAEIRETVAREKRRRGELGFDDMLSRLDSALRSESGEVLAAAIRTRFPVAMIDEFQDTDPQQYRIFRRIWHHQPETALLLIGDPKQAIYAFRGADIFTYMKARSEVHAHYTLDTNWRSAPGMVNSVNKLFSQTDDAFMFREIPFIPVKSAGKNQALRAVFKGETQPAMKMWLMEGESCGVGDYQSTMAQVCAAQIRDWLQAGQRGEALLMNGDDARPVRASDISVLVRSRQEAAQVRDALTLLEIPSVYLSNRDSVFETLEAQEMLWLLQAVMTPERENTLRSALATSMMGLNALDIETLNNDEHAWDVVVEEFDGYRQIWRKRGVMPMLRALMSARNIAENLLATAGGERRLTDILHISELLQEAGTQLESEHALVRWLSQHILEPDSNASSQQMRLESDKHLVQIVTIHKSKGLEYPLVWLPFITNFRVQEQAFYHDRHSFEAVLDLNAAPESVDLAEAERLAEDLRLLYVALTRSVWHCSLGVAPLVRRRGDKKGDTDVHQSALGRLLQKGEPQDAAGLRTCIEALCDDDIAWQTAQTGDNQPWQVNDVSTAELNAKTLQRLPGDNWRVTSYSGLQQRGHGIAQDLMPRLDVDAAGVASVVEEPTLTPHQFPRGASPGTFLHSLFEDLDFTQPVDPNWVREKLELGGFESQWEPVLTEWITAVLQAPLNETGVSLSQLSARNKQVEMEFYLPISEPLIASQLDTLIRQFDPLSAGCPPLEFMQVRGMLKGFIDLVFRHEGRYYLLDYKSNWLGEDSSAYTQQAMAAAMQAHRYDLQYQLYTLALHRYLRHRIADYDYEHHFGGVIYLFLRGVDKEHPQQGIYTTRPNAGLIALMDEMFAGMTLEEA
For B2, the “reckless DNA degradation after UV” value (ΔrecA ΔrecB cells [2]) was “did not”, the “basal DNA content” value (ΔrecA ΔrecB cells [3]) was “No significant difference in DNA content” and the “RecB expression level relative to endogenous RecB” value (BTH101 ΔrecB cells) was about 2 times.

B3: D1080A: RecB mutation that disrupts the interaction between RecB and RecA (protein, UniProt P08394 2-1180, looked up, variant D1080A)
RecBCD enzyme subunit RecB: SDVAETLDPLRLPLQGERLIEASAGTGKTFTIAALYLRLLLGLGGSAAFPRPLTVEELLVVTFTEAATAELRGRIRSNIHELRIACLRETTDNPLYERLLEEIDDKAQAAQWLLLAERQMDEAAVFTIHGFCQRMLNLNAFESGMLFEQQLIEDESLLRYQACADFWRRHCYPLPREIAQVVFETWKGPQALLRDINRYLQGEAPVIKAPPPDDETLASRHAQIVARIDTVKQQWRDAVGELDALIESSGIDRRKFNRSNQAKWIDKISAWAEEETNSYQLPESLEKFSQRFLEDRTKAGGETPRHPLFEAIDQLLAEPLSIRDLVITRALAEIRETVAREKRRRGELGFDDMLSRLDSALRSESGEVLAAAIRTRFPVAMIDEFQDTDPQQYRIFRRIWHHQPETALLLIGDPKQAIYAFRGADIFTYMKARSEVHAHYTLDTNWRSAPGMVNSVNKLFSQTDDAFMFREIPFIPVKSAGKNQALRFVFKGETQPAMKMWLMEGESCGVGDYQSTMAQVCAAQIRDWLQAGQRGEALLMNGDDARPVRASDISVLVRSRQEAAQVRDALTLLEIPSVYLSNRDSVFETLEAQEMLWLLQAVMTPERENTLRSALATSMMGLNALDIETLNNDEHAWDVVVEEFDGYRQIWRKRGVMPMLRALMSARNIAENLLATAGGERRLTDILHISELLQEAGTQLESEHALVRWLSQHILEPDSNASSQQMRLESDKHLVQIVTIHKSKGLEYPLVWLPFITNFRVQEQAFYHDRHSFEAVLDLNAAPESVDLAEAERLAEDLRLLYVALTRSVWHCSLGVAPLVRRRGDKKGDTDVHQSALGRLLQKGEPQDAAGLRTCIEALCDDDIAWQTAQTGDNQPWQVNDVSTAELNAKTLQRLPGDNWRVTSYSGLQQRGHGIAQDLMPRLDVDAAGVASVVEEPTLTPHQFPRGASPGTFLHSLFEDLDFTQPVDPNWVREKLELGGFESQWEPVLTEWITAVLQAPLNETGVSLSQLSARNKQVEMEFYLPISEPLIASQLDTLIRQFDPLSAGCPPLEFMQVRGMLKGFIDLVFRHEGRYYLLAYKSNWLGEDSSAYTQQAMAAAMQAHRYDLQYQLYTLALHRYLRHRIADYDYEHHFGGVIYLFLRGVDKEHPQQGIYTTRPNAGLIALMDEMFAGMTLEEA
For B3, the “survival rates after UV exposure” value (recB strains) is given as “comparable to those observed in strains with a complete recB deletion” and the “interaction between RecB and RecA” value (RecA) is given as “disrupts the interaction between RecB and RecA”.

B4: Pol III internal peptide (GQADMFG) (peptide)
peptide: Ac-GQADMFG-NH2
notes: also called QADMF peptide; source: synthetic peptide; bought: TAG Copenhagen
B4: binds [1].

B5: RecB nuclease motif peptide (KQVEMEFY) (peptide)
peptide: Ac-KQVEMEFY-NH2
notes: also called QVEMEF peptide; RecB-derived QVEMEF peptide; source: synthetic peptide; bought: TAG Copenhagen
Work on B5 yielded a Kd [4] of 2000 nM.
